Source: article PMC2783425 (Biochemistry, 2009)

Experiments:
SufA (E. coli) = SufA (E. coli) (UniProt P77667); experiment: SPR
(His)6-SufS = target: T1, (His)6-SufS (E. coli, UniProt P77444 1-406); experiment: SPR
T1 sequence (looked up): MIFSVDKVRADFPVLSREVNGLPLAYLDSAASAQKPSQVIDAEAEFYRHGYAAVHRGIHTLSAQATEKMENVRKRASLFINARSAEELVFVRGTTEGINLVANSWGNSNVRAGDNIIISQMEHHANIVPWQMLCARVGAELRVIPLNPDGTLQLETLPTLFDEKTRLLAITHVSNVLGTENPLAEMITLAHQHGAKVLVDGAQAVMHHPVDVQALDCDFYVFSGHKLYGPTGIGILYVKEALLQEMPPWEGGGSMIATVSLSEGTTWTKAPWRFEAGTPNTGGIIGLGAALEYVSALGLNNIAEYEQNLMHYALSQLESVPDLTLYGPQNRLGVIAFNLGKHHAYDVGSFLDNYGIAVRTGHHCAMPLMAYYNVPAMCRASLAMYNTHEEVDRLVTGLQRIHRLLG

SufB = target: T2, SufB (E. coli, UniProt P77522 1-495); experiment: cross-linking
T2 sequence (looked up): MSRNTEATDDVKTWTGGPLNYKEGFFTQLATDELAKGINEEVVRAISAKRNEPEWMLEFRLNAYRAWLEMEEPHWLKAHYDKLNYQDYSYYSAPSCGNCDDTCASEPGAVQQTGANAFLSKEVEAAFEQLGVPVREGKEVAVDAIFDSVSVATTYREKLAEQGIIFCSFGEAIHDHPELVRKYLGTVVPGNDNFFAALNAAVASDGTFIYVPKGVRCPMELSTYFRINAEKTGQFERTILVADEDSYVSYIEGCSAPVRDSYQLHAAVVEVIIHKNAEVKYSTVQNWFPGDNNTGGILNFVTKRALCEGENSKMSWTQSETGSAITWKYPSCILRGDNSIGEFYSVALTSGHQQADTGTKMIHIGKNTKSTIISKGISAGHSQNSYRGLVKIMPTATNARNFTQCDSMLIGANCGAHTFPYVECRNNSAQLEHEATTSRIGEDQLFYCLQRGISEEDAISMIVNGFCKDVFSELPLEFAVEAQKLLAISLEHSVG

SufC = target: T3, SufC (E. coli, UniProt P77499 1-248); experiment: cross-linking
T3 sequence (looked up): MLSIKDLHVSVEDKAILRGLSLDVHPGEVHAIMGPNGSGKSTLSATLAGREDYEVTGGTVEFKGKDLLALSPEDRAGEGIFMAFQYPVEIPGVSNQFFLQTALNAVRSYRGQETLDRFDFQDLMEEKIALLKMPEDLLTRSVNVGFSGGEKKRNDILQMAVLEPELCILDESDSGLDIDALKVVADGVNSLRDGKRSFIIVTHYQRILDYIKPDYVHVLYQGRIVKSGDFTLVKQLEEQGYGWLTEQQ

SEC = target: the molecule itself; experiment: SEC

“(His)6-SufS (from UniProt P77444 1-406) (enzyme)” gave a Kd (SufA (E. coli)) of 1400 nM.

B1: SufE (natural protein, E. coli, UniProt P76194 1-138, looked up)
chain: MALLPDKEKLLRNFLRCANWEEKYLYIIELGQRLPELRDEDRSPQNSIQGCQSQVWIVMRQNAQGIIELQGDSDAAIVKGLIAVVFILYDQMTPQDIVNFDVRPWFEKMALTQHLTPSRSQGLEAMIRAIRAKAAALS
With B1 the Kd ((His)6-SufS) was 1.1 nM.

B2: SufA pre-labeled with Mts-Atf-Biotin (natural protein, E. coli, UniProt P77667 1-122, looked up)
chain: MDMHSGTFNPQDFAWQGLTLTPAAAIHIRELVAKQPGMVGVRLGVKQTGCAGFGYVLDSVSEPDKDDLLFEHDGAKLFVPLQAMPFIDGTEVDFVREGLNQIFKFHNPKAQNECGCGESFGV
modifications: Mts-Atf-biotin on cysteine residues (reducible disulfide bonds)
B2: binds (SufB); binds (SufC).

B3: SufA (natural protein, E. coli, UniProt P77667 1-122, looked up)
chain: MDMHSGTFNPQDFAWQGLTLTPAAAIHIRELVAKQPGMVGVRLGVKQTGCAGFGYVLDSVSEPDKDDLLFEHDGAKLFVPLQAMPFIDGTEVDFVREGLNQIFKFHNPKAQNECGCGESFGV
For B3, the “stoichiometry N” value (SEC) was 2.
